Laboratory results as given in patent publication US20170327545A1.
Positions count from the first letter of the chain named. Names and notes keep the numbering of the source. Values belong to the binder of their own block, whether it stands above or below them.

Legend:
[1] = biological target: human polyclonal IgG (Gammanorm) (human); experiment: SPR (Biacore), retained IgG binding capacity after 96 NaOH cycles, ratio to reference Domain 3 (itself)
[2] = biological target: human polyclonal IgG (Gammanorm) (human); experiment: SPR (Biacore), ligand amine-coupled to chip, 1 mg/ml human polyclonal IgG flowed; IgG binding signal left after 96 cycles of 10 min 100 mM NaOH
[3] = biological target: human polyclonal IgG (Gammanorm) (human); experiment: SPR (Biacore), retained IgG binding capacity after 96 NaOH cycles, ratio to reference Domain 3 (itself, second run)
[4] = biological target: human polyclonal IgG (Gammanorm) (human); experiment: SPR (Biacore), ligand amine-coupled to chip, 1 mg/ml human polyclonal IgG flowed; IgG binding signal left after 96 cycles of 10 min 100 mM NaOH (second run, reference for the Q19 mutants)
[5] = biological target: human polyclonal IgG (Gammanorm) (human); experiment: SPR (Biacore), retained IgG binding capacity after 96 NaOH cycles, ratio to reference Domain 3
[6] = biological target: Purified Fab prepared from a papain-digested IgG mAb; experiment: dynamic binding capacity at 10% breakthrough, ligand multipoint-coupled to agarose beads (9.5 mg/ml), 1 mg/ml Fab, residence time 4 min
[7] = biological target: Purified Dab prepared from heat-treated E. coli supernatant; experiment: dynamic binding capacity at 10% breakthrough, ligand multipoint-coupled to agarose beads (9.5 mg/ml), 1 mg/ml Dab, residence time 4 min
[8] = biological target: Purified Dab prepared from heat-treated E. coli supernatant; experiment: dynamic binding capacity at 10% breakthrough, ligand multipoint-coupled to agarose beads (8.8 mg/ml), 1 mg/ml Dab, residence time 4 min
[9] = biological target: Purified Fab prepared from a papain-digested IgG mAb; experiment: dynamic binding capacity at 10% breakthrough, ligand multipoint-coupled to agarose beads (8.8 mg/ml), 1 mg/ml Fab, residence time 4 min
[10] = biological target: human polyclonal IgG (Gammanorm) (human); experiment: SPR (Biacore), retained IgG binding capacity after 96 NaOH cycles, ratio to reference Protein L (itself)
[11] = biological target: human polyclonal IgG (Gammanorm) (human); experiment: SPR (Biacore), ligand amine-coupled to chip, 1 mg/ml human polyclonal IgG flowed; IgG binding signal left after 100 cycles of 10 min 100 mM NaOH
[12] = biological target: human polyclonal IgG (Gammanorm) (human); experiment: SPR (Biacore), retained IgG binding capacity after 100 NaOH cycles, ratio to reference Protein L (itself)
[13] = biological target: Purified Dab prepared from heat-treated E. coli supernatant; experiment: dynamic binding capacity at 10% breakthrough, ligand multipoint-coupled to agarose beads (11.0 mg/ml), 1 mg/ml Dab, residence time 4 min
[14] = biological target: Purified Fab prepared from a papain-digested IgG mAb; experiment: dynamic binding capacity at 10% breakthrough, ligand multipoint-coupled to agarose beads (11.0 mg/ml), 1 mg/ml Fab, residence time 4 min

B3: Domain 1 (D1) of Peptostreptococcus magnus Protein L (protein)
chain: AQVSEEEVTIKANLIFANGSTQTAEFKGTFEKATSEAYAYADTLKKDNGEYTVDVADKGYTLNIKFAGKEKTPEEC
Retained capacity after 96 cycles (%) [2]: 13%
Sample/ref. ratio [5]: 0.42

B4: D3(N10Q, N45A, N60Q)2 (designed binder)
chain: PKEEVTIKAQLIYADGKTQTAEFKGTFEEATAEAYRYADLLAKEAGKYTVDVADKGYTLQIKFAGKEKTPEEPKEEVTIKAQLIYADGKTQTAEFKGTFEEATAEAYRYADLLAKEAGKYTVDVADKGYTLQIKFAGKEKTPEE
QB10 Fab [6]: 19.3 mg/mL
QB10 Dab [7]: 15.4 mg/mL

B5: D3(N10Q, N45A, N60Q)4 (designed binder)
chain: PKEEVTIKAQLIYADGKTQTAEFKGTFEEATAEAYRYADLLAKEAGKYTVDVADKGYTLQIKFAGKEKTPEEPKEEVTIKAQLIYADGKTQTAEFKGTFEEATAEAYRYADLLAKEAGKYTVDVADKGYTLQIKFAGKEKTPEEPKEEVTIKAQLIYADGKTQTAEFKGTFEEATAEAYRYADLLAKEAGKYTVDVADKGYTLQIKFAGKEKTPEEPKEEVTIKAQLIYADGKTQTAEFKGTFEEATAEAYRYADLLAKEAGKYTVDVADKGYTLQIKFAGKEKTPEE
QB10 Dab [8]: 15.9 mg/mL
QB10 Fab [9]: 19.3 mg/mL

B8: D3(N10Q, N45A, N60Q)6 (designed binder)
chain: PKEEVTIKAQLIYADGKTQTAEFKGTFEEATAEAYRYADLLAKEAGKYTVDVADKGYTLQIKFAGKEKTPEEPKEEVTIKAQLIYADGKTQTAEFKGTFEEATAEAYRYADLLAKEAGKYTVDVADKGYTLQIKFAGKEKTPEEPKEEVTIKAQLIYADGKTQTAEFKGTFEEATAEAYRYADLLAKEAGKYTVDVADKGYTLQIKFAGKEKTPEEPKEEVTIKAQLIYADGKTQTAEFKGTFEEATAEAYRYADLLAKEAGKYTVDVADKGYTLQIKFAGKEKTPEEPKEEVTIKAQLIYADGKTQTAEFKGTFEEATAEAYRYADLLAKEAGKYTVDVADKGYTLQIKFAGKEKTPEEPKEEVTIKAQLIYADGKTQTAEFKGTFEEATAEAYRYADLLAKEAGKYTVDVADKGYTLQIKFAGKEKTPEE
QB10 Dab [13]: 16.7 mg/mL
QB10 Fab [14]: 21.1 mg/mL

Now from value to binder:

Sample/ref. ratio [1]: 1
Retained capacity after 96 cycles (%) [2]: 31%
Sample/ref. ratio [3]: 1
Retained capacity after 96 cycles (%) [4]: 28%
B1: Domain 3 (D3) of Peptostreptococcus magnus Protein L (protein)
chain: AQVPKEEVTIKANLIYADGKTQTAEFKGTFEEATAEAYRYADLLAKENGKYTVDVADKGYTLNIKFAGKEKTPEEC

Retained capacity after 96 cycles (%) [2]: 22%
Sample/ref. ratio [5]: 0.71
B2: Domain 2 (D2) of Protein L, variant with alanine in position 31 (protein)
chain: B1 chain with T34A, L43A, A45K, E47D, K50E

Retained capacity after 96 cycles (%) [2]: 28%
Sample/ref. ratio [10]: 1
Retained capacity after 100 cycles (%) [11]: 23%
Sample/ref. ratio [12]: 1
B6: Protein L (four kappa light chain-binding domains, with additional AIHNRA sequence at the N-terminus) (protein)
chain: AIHNRAKEETPETPETDSEEEVTIKANLIFANGSTQTAEFKGTFEKATSEAYAYADTLKKDNGEYTVDVADKGYTLNIKFAGKEKTPEEPKEEVTIKANLIYADGKTQTAEFKGTFEEATAEAYRYADALKKDNGEYTVDVADKGYTLNIKFAGKEKTPEEPKEEVTIKANLIYADGKTQTAEFKGTFEEATAEAYRYADLLAKENGKYTVDVADKGYTLNIKFAGKEKTPEEPKEEVTIKANLIYADGKTQTAEFKGTFAEATAEAYRYADLLAKENGKYTADLEDGGYTINIRFAGKKVDEKPEE

Retained capacity after 96 cycles (%) [2]: 26%
Sample/ref. ratio [5]: 0.84
B7: Domain 4 (D4) of Peptostreptococcus magnus Protein L (protein)
chain: AQVPKEEVTIKANLIYADGKTQTAEFKGTFAEATAEAYRYADLLAKENGKYTADLEDGGYTINIRFAGKKVDEKPEEC
